Our source for the activity (fold activation) values is patent US7393946.

In the series the test system is ORCA-3 (Catharanthus roseus). Put plainly: cell_activity. The following applies: GUS/CAT, C. roseus cells.
Chain of ORCA-3 (Catharanthus roseus) (chain, as listed by the source): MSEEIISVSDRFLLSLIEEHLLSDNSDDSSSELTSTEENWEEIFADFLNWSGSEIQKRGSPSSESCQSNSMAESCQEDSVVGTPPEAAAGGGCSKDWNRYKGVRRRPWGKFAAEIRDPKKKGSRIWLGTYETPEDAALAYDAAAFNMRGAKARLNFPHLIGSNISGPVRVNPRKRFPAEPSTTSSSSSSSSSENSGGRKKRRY

Consider Str1 NH promoter (-202 to -1), for which the activity (fold activation) was 5.
